Reference: US20060140934A1 (Amgen, published 2006)
Blank lines part the entries; values can stand above or below the binder they belong to.

Key:
FcRn = experiment: Biacore FcRn binding
myostatin = biological target: T1, myostatin (UniProt O14793 267-375, limits assumed); experiment: cell-based or functional assay
T1 sequence (looked up): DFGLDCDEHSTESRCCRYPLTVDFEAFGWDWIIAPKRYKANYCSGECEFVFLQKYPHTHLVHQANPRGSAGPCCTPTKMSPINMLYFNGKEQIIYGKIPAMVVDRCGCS

B1: Fc-Loop TN8-19-7 construct with insertion at H49/E50 (CH2 domain) (Fc fusion, not shown: small tags and cut ends)
chain: MDKTHTCPPCPAPELLGGPSVFLFPPKPKDTLMISRTPEVTCVVVDVSHLADHGQCIRWPWMCPPEGWEEDPEVKFNWYVDGVEVHNAKTKPREEQYNSTYRVVSVLTVLHQDWLNGKEYKCKVSNKALPAPIEKTISKAKGQPREPQVYTLPPSRDELTKNQVSLTCLVKGFYPSDIAVEWESNGQPENNYKTTPPVLDSDGSFFLYSKLTVDKSRWQQGNVFSCSVMHEALHNHYTQKSLSLSPGK
- EC50 (FcRn): ~680 nM

B2: Fc-Loop TN8-19-7 construct with insertion at L139/T140 and asymmetric Gly4/Gly6 linkers (CH3 domain) (Fc fusion)
chain: MDKTHTCPPCPAPELLGGPSVFLFPPKPKDTLMISRTPEVTCVVVDVSHEDPEVKFNWYVDGVEVHNAKTKPREEQYNSTYRVVSVLTVLHQDWLNGKEYKCKVSNKALPAPIEKTISKAKGQPREPQVYTLPPSRDELGGGGLADHGQCIRWPWMCPPEGWEGGGGGGTKNQVSLTCLVKGFYPSDIAVEWESNGQPENNYKTTPPVLDSDGSFFLYSKLTVDKSRWQQGNVFSCSVMHEALHNHYTQKSLSLSPGK
- IC50(nM), in vitro cell based myostatin inhibition assay (luciferase reporter, C2C12 pMARE-luc) (myostatin): 0.873 nM

The next lines start with the values.

- IC50(nM), in vitro cell based myostatin inhibition assay (luciferase reporter, C2C12 pMARE-luc) (myostatin): 0.834 nM
B3: Fc-loop TN8-19-07 (clone #6951) (Fc fusion)
chain: MDKTHTCPPCPAPELLGGPSVFLFPPKPKDTLMISRTPEVTCVVVDVSHEDPEVKFNWYVDGVEVHNAKTKPREEQYNSTYRVVSVLTVLHQDWLNGKEYKCKVSNKALPAPIEKTISKAKGQPREPQVYTLPPSRDELGGLADHGQCIRWPWMCPPEGWEGGTKNQVSLTCLVKGFYPSDIAVEWESNGQPENNYKTTPPVLDSDGSFFLYSKLTVDKSRWQQGNVFSCSVMHEALHNHYTQKSLSLSPGK

- EC50 (FcRn): ~680 nM
B4: Fc-Loop TN8-19-7 construct with insertion at Y77/N78 (CH2 domain) (Fc fusion, not shown: small tags and cut ends)
chain: MDKTHTCPPCPAPELLGGPSVFLFPPKPKDTLMISRTPEVTCVVVDVSHEDPEVKFNWYVDGVEVHNAKTKPREEQYLADHGQCIRWPWMCPPEGWENSTYRVVSVLTVLHQDWLNGKEYKCKVSNKALPAPIEKTISKAKGQPREPQVYTLPPSRDELTKNQVSLTCLVKGFYPSDIAVEWESNGQPENNYKTTPPVLDSDGSFFLYSKLTVDKSRWQQGNVFSCSVMHEALHNHYTQKSLSLSPGK
